Consider three molecules from article PMC11528232 (Cell Reports Medicine, 2024).

The target in one assay is FcRn (UniProt P55899). As to the kind of experiment: SPR.
For a further assay, the target named is FcγRIIIA_(V158). Put plainly: SPR.
Another assay addresses FcγRI (UniProt P12314). As to the kind of experiment: SPR.
In another assay the target is FcγRIIIA_(F158) (UniProt P08637). Put plainly: SPR.
The target in another assay is FcγRIIA_(H131) (UniProt P12318). Put plainly: SPR.
The target of the next assay is human Claudin18.2 (Homo sapiens, UniProt P56856-2). Put plainly: flow cytometry on cells.

Sequence of FcγRIIIA_(V158) (P08637 17-208): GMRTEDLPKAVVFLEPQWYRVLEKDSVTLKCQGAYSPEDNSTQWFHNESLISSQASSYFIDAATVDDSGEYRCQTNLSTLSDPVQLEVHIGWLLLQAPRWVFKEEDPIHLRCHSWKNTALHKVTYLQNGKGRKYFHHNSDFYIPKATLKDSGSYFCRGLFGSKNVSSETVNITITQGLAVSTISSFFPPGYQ
Sequence of FcγRI (P12314 16-374): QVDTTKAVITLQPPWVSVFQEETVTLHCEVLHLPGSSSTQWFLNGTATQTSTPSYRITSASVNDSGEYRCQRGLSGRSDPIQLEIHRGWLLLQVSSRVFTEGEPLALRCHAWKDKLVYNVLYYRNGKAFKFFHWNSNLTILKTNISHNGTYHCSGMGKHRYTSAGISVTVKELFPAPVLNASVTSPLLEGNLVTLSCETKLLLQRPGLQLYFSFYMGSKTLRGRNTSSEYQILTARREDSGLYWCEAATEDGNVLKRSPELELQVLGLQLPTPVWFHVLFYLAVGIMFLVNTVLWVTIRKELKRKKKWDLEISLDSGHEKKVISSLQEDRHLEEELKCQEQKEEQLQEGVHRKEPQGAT
Sequence of FcγRIIA_(H131) (P12318 34-317): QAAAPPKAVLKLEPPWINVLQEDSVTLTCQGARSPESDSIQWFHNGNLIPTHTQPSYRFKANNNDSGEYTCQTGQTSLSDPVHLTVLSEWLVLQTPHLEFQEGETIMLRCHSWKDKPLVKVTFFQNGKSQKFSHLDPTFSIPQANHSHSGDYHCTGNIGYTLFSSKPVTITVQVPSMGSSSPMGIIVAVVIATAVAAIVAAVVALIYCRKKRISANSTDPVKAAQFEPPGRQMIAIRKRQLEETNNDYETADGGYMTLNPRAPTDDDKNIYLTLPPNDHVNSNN
Sequence of FcRn (P55899 24-365, chain 1 of 2): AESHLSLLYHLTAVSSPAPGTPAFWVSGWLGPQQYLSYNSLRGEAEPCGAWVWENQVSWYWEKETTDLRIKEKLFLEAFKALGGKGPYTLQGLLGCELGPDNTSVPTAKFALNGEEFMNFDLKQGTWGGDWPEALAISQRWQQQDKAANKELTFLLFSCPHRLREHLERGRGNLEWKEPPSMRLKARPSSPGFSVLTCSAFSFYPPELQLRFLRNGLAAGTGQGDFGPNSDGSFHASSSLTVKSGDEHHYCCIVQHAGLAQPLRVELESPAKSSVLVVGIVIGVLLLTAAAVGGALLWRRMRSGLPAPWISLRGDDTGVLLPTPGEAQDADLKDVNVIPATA
Sequence of FcRn (P61769 21-119, chain 2 of 2, further chain): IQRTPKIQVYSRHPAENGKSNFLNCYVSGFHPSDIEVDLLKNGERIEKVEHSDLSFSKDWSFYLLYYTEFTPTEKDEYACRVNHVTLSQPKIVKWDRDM
Sequence of FcγRIIIA_(F158) (P08637 17-254): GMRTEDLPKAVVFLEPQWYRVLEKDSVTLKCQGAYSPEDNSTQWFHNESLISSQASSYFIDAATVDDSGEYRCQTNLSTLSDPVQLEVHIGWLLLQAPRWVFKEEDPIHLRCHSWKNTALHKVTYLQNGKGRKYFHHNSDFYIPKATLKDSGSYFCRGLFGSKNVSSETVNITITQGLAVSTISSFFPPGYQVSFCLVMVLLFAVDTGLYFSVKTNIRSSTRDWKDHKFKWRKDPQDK

As for CM311 (antibody), the dissociation constant Kd with FcRn stood at 1530 nM; with FcγRIIIA_(V158), 78.9 nM; in the assay with FcγRI, 7.23 nM; with FcγRIIIA_(F158) it was 330 nM; in the assay with FcγRIIA_(H131) it was 2770 nM.
The corresponding values for CMG901 (antibody) are 1730 nM, 126 nM, 5.95 nM, 490 nM and 6290 nM.

B1: Zolbetuximab analog (antibody, V domains shown)
VH: QVQLQQPGAELVRPGASVKLSCKASGYTFTSYWINWVKQRPGQGLEWIGNIYPSDSYTNYNQKFKDKATLTVDKSSSTAYMQLSSPTSEDSAVYYCTRSWRGNSFDYWGQGTTLTVSS
VL: DIVMTQSPSSLTVTAGEKVTMSCKSSQSLLNSGNQKNYLTWYQQKPGQPPKLLIYWASTRESGVPDRFTGSGSGTDFTLTISSVQAEDLAVYYCQNDYSYPFTFGSGTKLEIK
Take B1: the response with human Claudin18.2 was half-maximal at 2.2 nM (EC50).
